The text below walks through data of paper PMC7007523 (Proceedings of the National Academy of Sciences of the …, 2020).

Non-standard residues stand in square brackets, D forms with d. No end group written: not given here. Hyp = O=C(O)[C@@H]1C[C@@H](O)CN1

For assay [1], the target named is GSO1/SGN3 ectodomain (residues 19 to 870) (Arabidopsis) (UniProt C0LGQ5). In words: ITC.
The target is the same in assay [2]. As to the kind of experiment: grating-coupled interferometry.
Assay [3] has as its target SGN3^3xmut ectodomain (Tyr416, Phe438 and Tyr440 replaced by alanine) (Arabidopsis) (UniProt C0LGQ5). As to the kind of experiment: grating-coupled interferometry.
The subject of another assay is GSO1/SGN3. In words: Binding of CIF2^Hyp69,71 to GSO1/SGN3. More on the design: species or system Arabidopsis. The following applies: SI Appendix, Fig. S6.
In assay [4] the target is GSO2 ectodomain (recombinant) (Arabidopsis) (UniProt Q9FIZ3). In words: grating-coupled interferometry.
Sequence of GSO2 ectodomain (recombinant) (Arabidopsis) (Q9FIZ3 23-876): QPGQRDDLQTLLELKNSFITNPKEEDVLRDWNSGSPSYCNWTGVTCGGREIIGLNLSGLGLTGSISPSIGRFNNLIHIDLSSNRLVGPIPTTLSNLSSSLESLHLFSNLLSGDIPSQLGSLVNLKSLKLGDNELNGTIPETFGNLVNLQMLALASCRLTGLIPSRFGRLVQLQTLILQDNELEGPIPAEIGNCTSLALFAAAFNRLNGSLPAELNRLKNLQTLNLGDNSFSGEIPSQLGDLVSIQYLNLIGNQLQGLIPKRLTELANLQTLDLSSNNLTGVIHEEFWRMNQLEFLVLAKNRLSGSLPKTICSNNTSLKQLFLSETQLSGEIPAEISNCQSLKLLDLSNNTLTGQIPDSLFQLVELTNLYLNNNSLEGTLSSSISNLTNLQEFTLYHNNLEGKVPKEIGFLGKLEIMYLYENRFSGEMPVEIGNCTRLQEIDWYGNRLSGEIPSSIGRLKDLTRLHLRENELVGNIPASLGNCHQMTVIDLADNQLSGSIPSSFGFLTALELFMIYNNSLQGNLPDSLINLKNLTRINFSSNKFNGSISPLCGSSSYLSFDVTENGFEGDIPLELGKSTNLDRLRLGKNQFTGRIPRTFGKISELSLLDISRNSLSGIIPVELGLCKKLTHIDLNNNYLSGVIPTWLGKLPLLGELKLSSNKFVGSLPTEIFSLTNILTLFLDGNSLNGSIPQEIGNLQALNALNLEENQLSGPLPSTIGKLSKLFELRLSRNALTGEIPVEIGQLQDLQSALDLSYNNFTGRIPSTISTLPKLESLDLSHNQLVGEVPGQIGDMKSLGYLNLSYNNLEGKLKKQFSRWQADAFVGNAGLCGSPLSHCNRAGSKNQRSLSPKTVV
Assay [5] deals with BAM1 ectodomain (Arabidopsis) (UniProt O49545). As to the kind of experiment: grating-coupled interferometry.
Sequence of BAM1 ectodomain (Arabidopsis) (O49545 20-640): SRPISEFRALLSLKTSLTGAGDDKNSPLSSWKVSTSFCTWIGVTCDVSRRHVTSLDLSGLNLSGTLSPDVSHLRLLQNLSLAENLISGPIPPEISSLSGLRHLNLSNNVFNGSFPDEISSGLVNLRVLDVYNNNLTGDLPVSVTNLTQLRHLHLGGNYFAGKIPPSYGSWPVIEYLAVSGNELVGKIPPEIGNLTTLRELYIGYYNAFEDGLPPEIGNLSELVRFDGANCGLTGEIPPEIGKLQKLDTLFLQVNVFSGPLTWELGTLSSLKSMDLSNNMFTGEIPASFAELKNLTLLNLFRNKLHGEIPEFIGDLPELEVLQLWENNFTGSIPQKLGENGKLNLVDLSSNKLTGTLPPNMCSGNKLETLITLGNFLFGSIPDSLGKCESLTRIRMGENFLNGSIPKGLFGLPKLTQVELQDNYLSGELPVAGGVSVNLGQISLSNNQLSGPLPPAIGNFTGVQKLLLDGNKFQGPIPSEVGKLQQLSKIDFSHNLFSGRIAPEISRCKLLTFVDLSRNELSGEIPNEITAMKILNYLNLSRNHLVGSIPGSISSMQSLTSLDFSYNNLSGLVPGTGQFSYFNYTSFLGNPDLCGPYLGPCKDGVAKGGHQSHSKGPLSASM
The target of assay [6] is PEPR1 ectodomain (Arabidopsis) (UniProt Q9SSL9). In words: grating-coupled interferometry.
Sequence of PEPR1 ectodomain (Arabidopsis) (Q9SSL9 29-769): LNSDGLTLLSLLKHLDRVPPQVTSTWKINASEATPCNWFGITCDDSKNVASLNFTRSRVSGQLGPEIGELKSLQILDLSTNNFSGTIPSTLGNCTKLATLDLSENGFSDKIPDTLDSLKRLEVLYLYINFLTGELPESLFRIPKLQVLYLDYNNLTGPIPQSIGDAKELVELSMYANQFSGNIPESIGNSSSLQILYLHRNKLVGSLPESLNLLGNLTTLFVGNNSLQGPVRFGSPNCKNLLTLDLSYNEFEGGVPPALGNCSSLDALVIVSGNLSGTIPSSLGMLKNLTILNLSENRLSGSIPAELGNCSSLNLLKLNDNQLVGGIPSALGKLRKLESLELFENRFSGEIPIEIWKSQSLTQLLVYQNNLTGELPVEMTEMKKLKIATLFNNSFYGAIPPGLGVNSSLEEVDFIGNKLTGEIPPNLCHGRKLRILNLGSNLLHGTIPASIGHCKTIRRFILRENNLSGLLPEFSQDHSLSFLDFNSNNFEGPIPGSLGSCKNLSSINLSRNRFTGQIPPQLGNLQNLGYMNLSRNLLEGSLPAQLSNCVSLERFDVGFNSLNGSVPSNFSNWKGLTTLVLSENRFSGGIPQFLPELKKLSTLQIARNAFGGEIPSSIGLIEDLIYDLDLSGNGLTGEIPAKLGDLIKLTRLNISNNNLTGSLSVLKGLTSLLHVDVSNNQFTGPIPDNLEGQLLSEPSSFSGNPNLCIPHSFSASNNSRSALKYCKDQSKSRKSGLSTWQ
The test system of a further assay is FLS2. As to the kind of experiment: GCI, SERK3 binding to FLS2. Also on record: species or system Arabidopsis.
The test system of another assay is EFR. In words: GCI, SERK3 binding to EFR. Also on record: species or system Arabidopsis.
Assay [7] deals with GSO1/SGN3 ectodomain (SGN3^WT) - CIF peptide. The following applies: CIF-dependent interaction.
Assay [8] concerns the target GSO2 in the presence of CIF3. In words: GCI coreceptor assay, SERK1 and SERK3 vs GSO2 in the presence of CIF3. More on the design: species or system Arabidopsis. To be noted: read-out: Kd of SERK binding to GSO2.
The target of assay [9] is FLS2 ectodomain (isolated) (Arabidopsis) (UniProt Q9FL28). As to the kind of experiment: grating-coupled interferometry.
Sequence of FLS2 ectodomain (isolated) (Arabidopsis) (Q9FL28 24-806): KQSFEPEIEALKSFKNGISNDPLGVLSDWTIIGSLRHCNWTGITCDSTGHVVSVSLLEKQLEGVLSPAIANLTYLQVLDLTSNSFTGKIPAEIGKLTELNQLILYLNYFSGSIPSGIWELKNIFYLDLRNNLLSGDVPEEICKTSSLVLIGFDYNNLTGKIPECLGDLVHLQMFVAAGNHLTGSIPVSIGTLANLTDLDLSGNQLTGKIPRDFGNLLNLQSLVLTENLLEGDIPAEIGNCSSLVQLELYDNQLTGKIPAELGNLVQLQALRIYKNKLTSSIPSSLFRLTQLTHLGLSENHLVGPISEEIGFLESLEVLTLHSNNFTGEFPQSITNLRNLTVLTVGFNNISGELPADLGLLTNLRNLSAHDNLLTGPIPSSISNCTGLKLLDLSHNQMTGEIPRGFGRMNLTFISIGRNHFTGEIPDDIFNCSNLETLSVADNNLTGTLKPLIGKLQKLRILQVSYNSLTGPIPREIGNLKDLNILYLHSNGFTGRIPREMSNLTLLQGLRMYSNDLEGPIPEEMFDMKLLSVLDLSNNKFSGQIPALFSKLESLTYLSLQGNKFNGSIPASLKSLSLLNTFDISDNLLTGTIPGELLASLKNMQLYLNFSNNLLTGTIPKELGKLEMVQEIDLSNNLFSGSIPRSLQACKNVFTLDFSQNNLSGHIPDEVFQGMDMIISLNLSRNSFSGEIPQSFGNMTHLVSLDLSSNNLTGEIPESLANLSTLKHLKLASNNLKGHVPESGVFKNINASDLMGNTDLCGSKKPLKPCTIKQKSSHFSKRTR
The target of assay [10] is T1, GSO1/SGN3 ectodomain (SGN3^WT) - CIF peptide (Arabidopsis thaliana, UniProt C0LGQ5).
T1 sequence (C0LGQ5 19-870): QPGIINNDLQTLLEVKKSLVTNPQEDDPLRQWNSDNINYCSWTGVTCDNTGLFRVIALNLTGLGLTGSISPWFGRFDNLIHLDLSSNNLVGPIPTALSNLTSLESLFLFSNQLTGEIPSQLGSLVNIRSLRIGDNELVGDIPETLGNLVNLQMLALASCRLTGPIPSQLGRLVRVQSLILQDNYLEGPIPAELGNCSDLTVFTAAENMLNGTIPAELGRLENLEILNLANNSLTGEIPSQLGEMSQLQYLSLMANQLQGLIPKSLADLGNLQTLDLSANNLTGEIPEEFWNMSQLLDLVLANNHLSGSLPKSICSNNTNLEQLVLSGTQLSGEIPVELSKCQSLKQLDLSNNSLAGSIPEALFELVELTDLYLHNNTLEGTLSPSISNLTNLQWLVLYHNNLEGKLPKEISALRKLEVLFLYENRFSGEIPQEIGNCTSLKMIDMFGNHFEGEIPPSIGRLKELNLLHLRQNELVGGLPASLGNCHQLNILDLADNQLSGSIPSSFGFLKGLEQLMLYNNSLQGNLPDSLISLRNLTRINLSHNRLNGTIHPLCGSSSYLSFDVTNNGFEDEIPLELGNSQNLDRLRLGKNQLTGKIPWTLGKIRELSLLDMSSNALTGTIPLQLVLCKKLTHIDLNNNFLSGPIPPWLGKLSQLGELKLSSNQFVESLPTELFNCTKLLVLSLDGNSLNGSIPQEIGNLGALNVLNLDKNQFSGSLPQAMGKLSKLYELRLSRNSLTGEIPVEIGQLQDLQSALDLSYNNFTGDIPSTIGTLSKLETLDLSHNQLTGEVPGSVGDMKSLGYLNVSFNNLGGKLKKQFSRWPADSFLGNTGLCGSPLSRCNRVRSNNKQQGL
To be noted: in the absence of CIF peptide.

For assay [11], the target named is FLS2 ectodomain (isolated) (Arabidopsis, UniProt Q9FL28 24-806). As to the kind of experiment: grating-coupled interferometry.
Sequence of FLS2 ectodomain (isolated) (Q9FL28 24-806): as the sequence (Q9FL28 24-806) above

For “CIF2 peptide, synthetic sTyr-containing (CIF2^WT) (from UniProt O65684 29-83)”, in assay [1], the Kd was 40 nM and the stoichiometry N was 1. This molecule showed an equilibrium dissociation constant (Kd) in assay [2] of 2 nM. Moreover, the fold reduction of CIF2 binding against wild-type GSO1/SGN3 in assay [3] is 10 fold. For the molecule “CIF2^Hyp69,71: CIF2 with hydroxyprolines at positions 69 and 71 (GRSSILIYSQEDDHPEVVERRIHEHERILRMNSRDYGHSS[Hyp]K[Hyp]KLVRPPFKLIPN)”, in the assay with GSO1/SGN3, the “dissociation constant compared with CIF2^WT” value is reported as “very similar dissociation constants”. Consider “CIF3 peptide, tyrosine sulfated (CIF3^WT)”, for which the dissociation constant Kd in assay [2] and in assay [4] was 4 nM throughout.

In assay [1], CIF4 peptide (wild type) had a Kd of 300 nM and a stoichiometry N of 1. Regarding CLE9 peptide (12 amino acids), the equilibrium dissociation constant (Kd) in assay [5] stood at 1 nM. For “PEP1 danger signal peptide (23 amino acids)”, the Kd in assay [6] was determined as 100 nM.

For the molecule “PEP2 danger signal peptide (23 amino acids) (from UniProt Q9LV88 74-109)”, the dissociation constant (Kd) in assay [6] amounted to 20000 nM.

“SERK3: recombinant LRR ectodomain of the SERK3 coreceptor kinase”: the “affinity of SERK3 binding” value in the assay with FLS2 and in the assay on EFR was “low micromolar affinity” each time. For the same molecule, in assay [7], the “interaction of coreceptor candidate with GSO1/SGN3 in GCI assays” value was “interacts”. Besides, in assay [8], the Kd is 20 to 80 nM.

Regarding flg22 immune elicitor peptide, the equilibrium dissociation constant (Kd) in assay [9] was found to be 1500 nM.

B1: SERK1: recombinant LRR ectodomain of the SERK1 coreceptor kinase (residues 24 to 213) (protein)
chain: ASANLEGDALHTLRVTLVDPNNVLQSWDPTLVNPCTWFHVTCNNENSVIRVDLGNAELSGHLVPELGVLKNLQYLELYSNNITGPIPSNLGNLTNLVSLDLYLNSFSGPIPESLGKLSKLRFLRLNNNSLTGSIPMSLTNITTLQVLDLSNNRLSGSVPDNGSFSLFTPISFANNLDLCGPVTSHPCPGS
B1: the “SERK1 binding to SGN3” value in assay [10] is “No SERK1 binding”. For the same molecule, the Kd in assay [8] lay in the range of 20 to 80 nM.

B2: SERK3 LRR ectodomain (receptor, Arabidopsis, UniProt Q94F62 26-225, looked up)
chain: NAEGDALSALKNSLADPNKVLQSWDATLVTPCTWFHVTCNSDNSVTRVDLGNANLSGQLVMQLGQLPNLQYLELYSNNITGTIPEQLGNLTELVSLDLYLNNLSGPIPSTLGRLKKLRFLRLNNNSLSGEIPRSLTAVLTLQVLDLSNNPLTGDIPVNGSFSLFTPISFANTKLTPLPASPPPPISPTPPSPAGSNRITG
For the molecule B2, the binding result in assay [11] is listed as “binds”.

The term Kd denotes the concentration at which binding is half-saturated. In general, stoichiometry N refers to a count of units in the complex or per binding partner.
